# The supplement of paper PMC10567573
# B1: ETS1 (parent)
# chain: YVRDRADLNKDKPVIPAAALAGYT
# Variants of: B1
# Assay: protein stability index of a GFP-peptide fusion (GPS, HEK-293T) (PSI 1-6); higher = more stable
# Conditions: c terminus: a fixed tail appended
# 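Note: lentivirally expressed fusions sorted by FACS into six bins by GFP to DsRed ratio, PSI derived from sequencing read proportions per bin multiplied by bin number.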
row,Variant,protein stability index
1,YQRDRADLNKDKPVIPAAALAGYT [V2Q],2.93
2,YIRDRADLNKDKPVIPAAALAGYT [V2I],2.17
3,YCRDRADLNKDKPVIPAAALAGYT [V2C],2.25
4,YHRDRADLNKDKPVIPAAALAGYT [V2H],2.46
5,YLRDRADLNKDKPVIPAAALAGYT [V2L],3.69
6,YTRDRADLNKDKPVIPAAALAGYT [V2T],3.5
7,YMRDRADLNKDKPVIPAAALAGYT [V2M],3.81
8,YARDRADLNKDKPVIPAAALAGYT [V2A],4.01
9,YERDRADLNKDKPVIPAAALAGYT [V2E],4.25
10,YKRDRADLNKDKPVIPAAALAGYT [V2K],3.61
11,YNRDRADLNKDKPVIPAAALAGYT [V2N],3.77
12,YGRDRADLNKDKPVIPAAALAGYT [V2G],3.53
13,YDRDRADLNKDKPVIPAAALAGYT [V2D],4.34
14,YFRDRADLNKDKPVIPAAALAGYT [V2F],2.88
15,YSRDRADLNKDKPVIPAAALAGYT [V2S],3.76
16,YRRDRADLNKDKPVIPAAALAGYT [V2R],3.79
17,YWRDRADLNKDKPVIPAAALAGYT [V2W],3.19
18,YPRDRADLNKDKPVIPAAALAGYT [V2P],3
19,YYRDRADLNKDKPVIPAAALAGYT [V2Y],3.5
20,YVRDRVDLNKDKPVIPAAALAGYT [A6V],2.29
21,YVRDRMDLNKDKPVIPAAALAGYT [A6M],3.35
22,YVRDRGDLNKDKPVIPAAALAGYT [A6G],2.49
23,YVRDRHDLNKDKPVIPAAALAGYT [A6H],1.87
24,YVRDRLDLNKDKPVIPAAALAGYT [A6L],1.55

row,Variant,protein stability index
1,YVRDRWDLNKDKPVIPAAALAGYT [A6W],2.71
2,YVRDRRDLNKDKPVIPAAALAGYT [A6R],1.72
3,YVRDRDDLNKDKPVIPAAALAGYT [A6D],1.8
4,YVRDRFDLNKDKPVIPAAALAGYT [A6F],2.46
5,YVRDRTDLNKDKPVIPAAALAGYT [A6T],1.88
6,YVRDRYDLNKDKPVIPAAALAGYT [A6Y],2.28
7,YVRDRNDLNKDKPVIPAAALAGYT [A6N],2.08
8,YVRDRIDLNKDKPVIPAAALAGYT [A6I],2.76
9,YVRDREDLNKDKPVIPAAALAGYT [A6E],2.27
10,YVRDRPDLNKDKPVIPAAALAGYT [A6P],1.61
11,YVRDRSDLNKDKPVIPAAALAGYT [A6S],2.05
12,YVRDRCDLNKDKPVIPAAALAGYT [A6C],2
13,YVRDRKDLNKDKPVIPAAALAGYT [A6K],1.2
14,YVRDRQDLNKDKPVIPAAALAGYT [A6Q],2.35
15,YVRKRADLNKDKPVIPAAALAGYT [D4K],2.07
16,YVRCRADLNKDKPVIPAAALAGYT [D4C],3.5
17,YVRYRADLNKDKPVIPAAALAGYT [D4Y],3.23
18,YVRIRADLNKDKPVIPAAALAGYT [D4I],2.05
19,YVRFRADLNKDKPVIPAAALAGYT [D4F],2.32
20,YVRQRADLNKDKPVIPAAALAGYT [D4Q],1.57
21,YVRWRADLNKDKPVIPAAALAGYT [D4W],1.83
22,YVRTRADLNKDKPVIPAAALAGYT [D4T],3.02
23,YVRRRADLNKDKPVIPAAALAGYT [D4R],2.1
24,YVRNRADLNKDKPVIPAAALAGYT [D4N],3.01

row,Variant,protein stability index
1,YVRHRADLNKDKPVIPAAALAGYT [D4H],1.94
2,YVRLRADLNKDKPVIPAAALAGYT [D4L],2.03
3,YVRGRADLNKDKPVIPAAALAGYT [D4G],2.47
4,YVRMRADLNKDKPVIPAAALAGYT [D4M],3.45
5,YVRSRADLNKDKPVIPAAALAGYT [D4S],1.77
6,YVRARADLNKDKPVIPAAALAGYT [D4A],2.68
7,YVRPRADLNKDKPVIPAAALAGYT [D4P],2.24
8,YVRERADLNKDKPVIPAAALAGYT [D4E],1.79
9,YVRDEADLNKDKPVIPAAALAGYT [R5E],2.36
10,YVRDDADLNKDKPVIPAAALAGYT [R5D],2.14
11,YVRDGADLNKDKPVIPAAALAGYT [R5G],2.24
12,YVRDHADLNKDKPVIPAAALAGYT [R5H],1.95
13,YVRDMADLNKDKPVIPAAALAGYT [R5M],1.56
14,YVRDCADLNKDKPVIPAAALAGYT [R5C],2.36
15,YVRDPADLNKDKPVIPAAALAGYT [R5P],1.72
16,YVRDNADLNKDKPVIPAAALAGYT [R5N],1.94
17,YVRDQADLNKDKPVIPAAALAGYT [R5Q],1.57
18,YVRDVADLNKDKPVIPAAALAGYT [R5V],1.44
19,YVRDSADLNKDKPVIPAAALAGYT [R5S],2.23
20,YVRDAADLNKDKPVIPAAALAGYT [R5A],2.12
21,YVRDLADLNKDKPVIPAAALAGYT [R5L],1.82
22,YVRDIADLNKDKPVIPAAALAGYT [R5I],3.08
23,YVRDWADLNKDKPVIPAAALAGYT [R5W],2.48
24,YVRDKADLNKDKPVIPAAALAGYT [R5K],2.11

row,Variant,protein stability index
1,YVRDYADLNKDKPVIPAAALAGYT [R5Y],2.7
2,YVRDTADLNKDKPVIPAAALAGYT [R5T],2.02
3,YVRDFADLNKDKPVIPAAALAGYT [R5F],3.08
4,HVRDRADLNKDKPVIPAAALAGYT [Y1H],3.7
5,TVRDRADLNKDKPVIPAAALAGYT [Y1T],4.03
6,VVRDRADLNKDKPVIPAAALAGYT [Y1V],3.65
7,AVRDRADLNKDKPVIPAAALAGYT [Y1A],4.46
8,PVRDRADLNKDKPVIPAAALAGYT [Y1P],3.92
9,IVRDRADLNKDKPVIPAAALAGYT [Y1I],3.73
10,RVRDRADLNKDKPVIPAAALAGYT [Y1R],3.88
11,WVRDRADLNKDKPVIPAAALAGYT [Y1W],3.77
12,SVRDRADLNKDKPVIPAAALAGYT [Y1S],4.24
13,NVRDRADLNKDKPVIPAAALAGYT [Y1N],4.3
14,DVRDRADLNKDKPVIPAAALAGYT [Y1D],4.43
15,EVRDRADLNKDKPVIPAAALAGYT [Y1E],4.38
16,LVRDRADLNKDKPVIPAAALAGYT [Y1L],3.79
17,KVRDRADLNKDKPVIPAAALAGYT [Y1K],4.18
18,QVRDRADLNKDKPVIPAAALAGYT [Y1Q],4.41
19,GVRDRADLNKDKPVIPAAALAGYT [Y1G],4.02
20,CVRDRADLNKDKPVIPAAALAGYT [Y1C],3.31
21,FVRDRADLNKDKPVIPAAALAGYT [Y1F],2.22
22,MVRDRADLNKDKPVIPAAALAGYT [Y1M],3.85
